# Experimental data from patent US20210324061A1 (ARGENX BVBA, published 2021).
# Substitutions are numbered along the chain they refer to. Names and notes keep the numbering of the source.
# B1: 39B6-AYE (ARGX-115), IgG4 S228P (antibody, V domains shown)
# VH: QVQLVQPGAEVRKPGASVKVSCKASGYRFTSYYIDWVRQAPGQGLEWMGRIDPEDAGTKYAQKFQGRVTMTADTSTSTVYVELSSLRSEDTAVYYCARYEWETVVVGDLMYEYEYWGQGTLVTVSS
# VL: DIQMTQSPSSLSASVGDRVTITCQASQSISSYLAWYQQKPGQAPKILIYGASRLKTGVPSRFSGSGSGTSFTLTISSLEPEDAATYYCQQYASVPVTFGQGTKVEIKR
# B2: LHG10.6 IgG1-N297Q (antibody, V domains shown)
# VH: B1 VH with Q1E, V11L, K13N, P14S, A56G, M70F, V79A, Y99N, L121Q
# VL: DIQMTQSPSSLSASLGDRVTITCQASQSISSYLAWYQQKPGQAPNILIYGASRLKTGVPSRFSGSGSGTSFTLTISGLEAEDAGTYYCQQYASVPVTFGQGTKVELK
# B3: Fab 17H5 (Fab of LHG-10.6) (Fab, V domains shown)
# VH: B1 VH with Q1E, V11L, K13N, P14S, A56G, M70F, V79A, Y99N, L121Q
# VL: B2 VL
# notes: Parental, non-germlined Fab
# B4: LHG-10.6 monoclonal antibody (17H5 mAb), isotype not stated (antibody, V domains shown)
# VH: B1 VH with Q1E, V11L, K13N, P14S, A56G, M70F, V79A, Y99N, L121Q
# VL: B2 VL
# Tests used:
# [1] = molecular target: T1, human GARP-TGF-β1 complex (recombinant complex of human GARP and latent human TGF-β1) (human, UniProt Q14392 20-627; P01137 30-278; P01137 279-390); assay: SPR Biacore 3000, chip ~4000 RU hGARP-TGF-β; slope vs -20°C reference (=100%); sample stored 28 d at 37°C
# T1 construct: also called huGARP-TGF-β1; hGARP-TGF-β1
# Protocol: (§1) From the intermediate concentration of all samples at 1 mg/ml described above, an extra 1/250 dilution was done for SPR analysis to yield a final concentration of 4 μg/ml. This 1/250 dilution took place for all conditions in two steps: a) 5 μl (1 mg/ml)+120 μl HBS-EP (SPR buffer) and b) an extra 10× dilution (15 μl+135 μl HBS-EP). For each antibody and each time point, a separate standard curve was prepared, starting from a −80° C. frozen sample. This was analyzed together with the stability samples to determine the slope of each curve after general fitting of the standards. These slopes were used to calculate the percent activity of the stability samples by setting the reference sample at 100%.
# (§2) To determine the target binding activity in Biacore, a CM5 chip was coated with ˜4000 RU human GARP-TGF-β complex. Flow was set to 30 μl/min with a “kinject” injection mode and two regeneration injections (1 mM NaCl, 2.5 mM glycine pH 1.5) with a 5 min interval.
# (§3) Open the curves in the BIAEVAL program and select value ‘2-1’ (1: blank, 2 hGARP-TGF-β1) [0263] Select one curve at the time for plot overlay [0264] Delete the regeneration part of the curve [0265] Select the baseline just before the injection and transform the Y-axis for ‘zero at median of selection’ [0266] Select ‘General Fit’, starting from 120 sec after injecting and ending at 155 sec [0267] Plot the standards in Excel and determine the slope of the curve for each antibody [0268] These values are converted to a percent activity by setting the reference (sample stored at −20° C.) at 100%
# [2] = molecular target: T1, human GARP-TGF-β1 complex (recombinant …); assay: SPR Biacore 3000, chip ~4000 RU hGARP-TGF-β; slope vs -20°C reference (=100%); sample stored 56 d at 37°C
# Protocol: as §1, §2, §3
# [3] = molecular target: T1, human GARP-TGF-β1 complex (recombinant …); assay: SPR Biacore 3000, chip ~4000 RU hGARP-TGF-β; slope vs -20°C reference (=100%); sample stored 28 d at 5°C
# Protocol: as §1, §2, §3
# [4] = molecular target: T1, human GARP-TGF-β1 complex (recombinant …); assay: SPR Biacore 3000, chip ~4000 RU hGARP-TGF-β; slope vs -20°C reference (=100%); sample stored 56 d at 5°C
# Protocol: as §1, §2, §3
# [5] = molecular target: T1, human GARP-TGF-β1 complex (recombinant …); assay: SPR Biacore 3000, chip ~4000 RU hGARP-TGF-β; slope vs -20°C reference (=100%); sample 0 d, 37°C arm
# Protocol: as §1, §2, §3
# [6] = molecular target: T1, human GARP-TGF-β1 complex (recombinant …); assay: SPR Biacore T200, CM5 chip coated with GARP-TGF-β1 complex at 150 RU
# Protocol: (§4) The affinity of all antibodies (including 39B6-A) for GARP-TGF-β1 was tested by BiacoreT200 using a CM5 chip coated with GARP-TGF-β1 complex at 150RU (Table 17) or coated with the antibodies at 200RU (Table 17)
# [7] = molecular target: T2, complex of recombinant GARP and recombinant LAP (human, UniProt Q14392 20-627; P01137 30-278); assay: ELISA in two orientations: GARP coated and LAP captured; or ARGX-115 coated, GARP then LAP added, detected with anti-LAP-HRP
# T2 construct: Formed on the ELISA plate; It contains no mature TGF-β; also called GARP-LAP complex
# Protocol: For ELISA plates coated with GARP, a complex with either full-length latent TGF-β (including both the LAP and mature TGF-β regions) or a complex with recombinant LAP was allowed to form by the addition of the relevant recombinant protein. […] In contrast, an anti-LAP antibody was able to bind to the GARP-LAP complex.
# An ELISA plate was coated with recombinant GARP (1 μg/mL O/N 4° C.), blocked with blocking agent (casein-PBS), and LAP (5 μg/mL) was captured on the coated recombinant GARP. LAP binding was detected with anti-LAP-HRP.
# [8] = molecular target: T1, human GARP-TGF-β1 complex (recombinant …); assay: SPR Biacore T200, CM5 chip coated with the antibody at 200 RU, complex in solution
# Protocol: as §4
# [9] = molecular target: T1, human GARP-TGF-β1 complex (recombinant …); assay: SPR Biacore 3000, chip ~4000 RU hGARP-TGF-β; slope vs -20°C reference (=100%); sample 0 d, 5°C arm
# Protocol: as §1, §2, §3
# [10] = molecular target: T1, human GARP-TGF-β1 complex (recombinant …); assay: SPR Biacore T200, CM5 chip coated with GARP-TGF-β1 complex at 750 RU
# Protocol: (§5) Clone 39B6 was selected as the lead germlined clone based on its binding characteristics. This antibody was produced in two effector function deficient formats, hlgG1^N297Q and hlgG4^S228P, and stability tests were carried out. Prior to the stability testing, the affinity of the effector deficient 39B6 antibodies for GARP-TGF-β1 was tested by BiacoreT200 using a CM5 chip coated with GARP-TGF-β1 complex at 750RU (Table 14) or coated with the antibodies at 1000RU (Table 15).
# [11] = molecular target: T1, human GARP-TGF-β1 complex (recombinant …); assay: SPR Biacore T200, CM5 chip coated with the antibody at 1000 RU, complex in solution
# Protocol: as §5
# [12] = molecular target: T1, human GARP-TGF-β1 complex (recombinant …); assay: SPR, Fab off-rate on human GARP-TGF-β1 complex
# [13] = molecular target: T1, human GARP-TGF-β1 complex (recombinant …); assay: SPR, mAb on human GARP-TGF-β1 complex
# Excerpt: The five germlined clones reformatted to human IgG1 were produced by transient transfection in HEK 293E cells.
# T1 sequence (Q14392 20-627 limits assumed, chain 1 of 3): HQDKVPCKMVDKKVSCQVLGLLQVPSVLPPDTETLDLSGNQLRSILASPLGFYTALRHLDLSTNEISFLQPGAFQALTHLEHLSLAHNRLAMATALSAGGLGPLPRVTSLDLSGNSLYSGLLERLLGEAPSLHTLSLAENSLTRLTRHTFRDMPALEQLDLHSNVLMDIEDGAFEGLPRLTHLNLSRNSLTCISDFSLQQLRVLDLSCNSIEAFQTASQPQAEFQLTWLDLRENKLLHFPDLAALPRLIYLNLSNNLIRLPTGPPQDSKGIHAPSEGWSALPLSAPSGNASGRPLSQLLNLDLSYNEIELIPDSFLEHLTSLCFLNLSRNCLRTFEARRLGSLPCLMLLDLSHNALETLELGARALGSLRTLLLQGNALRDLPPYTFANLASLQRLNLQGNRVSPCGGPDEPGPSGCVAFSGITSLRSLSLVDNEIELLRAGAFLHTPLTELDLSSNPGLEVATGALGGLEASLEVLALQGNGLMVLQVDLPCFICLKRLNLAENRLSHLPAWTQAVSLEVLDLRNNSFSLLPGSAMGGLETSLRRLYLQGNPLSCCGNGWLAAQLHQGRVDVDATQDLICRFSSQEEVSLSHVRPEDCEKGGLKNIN
# T1 sequence (P01137 30-278 limits assumed, chain 2 of 3): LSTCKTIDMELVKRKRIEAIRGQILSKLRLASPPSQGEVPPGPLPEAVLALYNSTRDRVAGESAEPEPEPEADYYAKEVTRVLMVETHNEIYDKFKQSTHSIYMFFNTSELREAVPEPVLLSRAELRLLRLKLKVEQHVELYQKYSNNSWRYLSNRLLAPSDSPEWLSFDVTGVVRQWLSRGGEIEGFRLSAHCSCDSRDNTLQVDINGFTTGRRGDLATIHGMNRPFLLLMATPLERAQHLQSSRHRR
# T1 sequence (P01137 279-390 limits assumed, chain 3 of 3): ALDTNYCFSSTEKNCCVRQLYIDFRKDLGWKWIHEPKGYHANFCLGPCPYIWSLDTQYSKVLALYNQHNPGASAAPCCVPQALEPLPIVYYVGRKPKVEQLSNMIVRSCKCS
# T2 sequence (Q14392 20-627 limits assumed, chain 1 of 2): as the sequence (Q14392 20-627 limits assumed, chain 1 of 3) above
# T2 sequence (P01137 30-278 limits assumed, chain 2 of 2): as the sequence (P01137 30-278 limits assumed, chain 2 of 3) above
binder,measurement,setting,value
B1,Activity on Biacore (%),[1],96.1%
same,Activity on Biacore (%),[2],104%
same,Activity on Biacore (%),[3],96.7%
same,Activity on Biacore (%),[4],104%
same,Activity on Biacore (%),[5],93.5%
same,Fold-difference (KD vs 39B6-A),[6],0.8 fold
same,Kd,[6],0.763 nM
same,binding result,[7],no binding
same,Fold-difference (KD vs 39B6-A),[8],1.2 fold
same,Kd,[8],1.62 nM
same,Activity on Biacore (%),[9],93.5%
B2,Fold-difference (KD vs LHG10.6),[10],1 fold
same,Kd,[10],0.819 nM
same,Fold-difference (KD vs LHG10.6),[11],1 fold
same,Kd,[11],0.534 nM
B3,koff,[12],0.000201 s⁻¹
B4,Kd,[13],0.1 nM
same,fold difference (KD vs 17H5),[13],1 fold
same,Fold-difference (KD vs 39B6-A),[6],0.5 fold
same,Kd,[6],0.517 nM
